Results: the supplement of paper PMC7877785
± gives the uncertainty stated by the source.

Experiment: self-splicing fitness, log relative to wild type (ln ratio); higher = more splicing; Tetrahymena group I intron in knt gene, E. coli kanamycin selection, DiMSum; sequences stand for … in CUCUCU…GGAGGGAAAAGUUAUCAGGCAUGCACCUGGUAGCUAGUCUUUAAACCAAUAGAUUGCAUCGGUUUAAAAGGCAAGACCGUCAAAUUGCGGGAAAGGGGUCAACAGCCGUUCAGUACCAAGUCUCAGGGGAAACUUUGAGAUGGCCUUGCAAAGGGUAUGGUAAUAAGCUGACGGACAUGGUCCUAACCACGCAGCCAAGUCCUAAGUCAACAGAUCUUCUGUUGAUAUGGAUGCAGUUCACAGACUAAAUGUCGGUCGGGGAAGAUGUAUUCUUCUCAUAAGAUAUAGUCGGACCUCUCCUUAAUGGGAGCUAGCGGAUGAAGUGAUGCAACACUGGAGCCGCUGGGAACUAAUUUGUAUGCGAAAGUAUAUUGAUUAGUUUUGGAGUACUCGUGGUCG
Outline: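 The eight P1ex-region nucleotides of an intron in the knt kanamycin-resistance gene on pET-22b(+) were all randomised and the library put into E. coli BL21(DE3). Six replicate transformations were grown overnight at 37°C or 30°C on LB agar with or without 25 μg/mL kanamycin, together with 100 μg/mL carbenicillin, 50 μM IPTG and 0.2% rhamnose. Colonies were pooled and amplicon-sequenced on an Illumina HiSeq 2500. Fitness from DiMSum is the error-weighted combination of wild-type-normalised replicate fold changes, kanamycin over none.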

Row | Sequence | self-splicing fitness (ln) (30 °C) | self-splicing fitness (ln) (37 °C)
1 | CAAGAGCAAUAUUACGCACG | -1.96 ± 0.11 | -0.942 ± 0.12
2 | GUCGAGCAAUAUUACGGUUU | -1.86 ± 0.11 | -1.44 ± 0.13
3 | UUCUAGCAAUAUUACGAUAC | -2.08 ± 0.38 | -2.64 ± 0.41
4 | CGCAAGCAAUAUUACGGCAU | -1.63 ± 0.071 | -0.555 ± 0.079
5 | GGUGAGCAAUAUUACGCAGU | -2.13 ± 0.32 | -2.45 ± 0.41
6 | CAUAAGCAAUAUUACGAAGC | -3.09 ± 0.44 | 
7 | UUGUAGCAAUAUUACGAGGU | -2.82 ± 0.2 | -2.61 ± 0.36
8 | AGUUAGCAAUAUUACGAUAU | -1.55 ± 0.16 | -0.311 ± 0.19
9 | UGUGAGCAAUAUUACGUGAG | -1.67 ± 0.14 | -1.52 ± 0.18
10 | GACUAGCAAUAUUACGCUGU | -3.22 ± 0.2 | -2.83 ± 0.28
11 | UAGAAGCAAUAUUACGGGGU | -3.13 ± 0.17 | -1.27 ± 0.22
12 | CUCGAGCAAUAUUACGAAGC | -3.7 ± 0.16 | -3.28 ± 0.21
13 | UGGUAGCAAUAUUACGUGCG | -0.612 ± 0.12 | -0.415 ± 0.15
14 | UCACAGCAAUAUUACGCAGU | -4.13 ± 0.21 | -2.17 ± 0.16
15 | CGAUAGCAAUAUUACGACAC | -3.23 ± 0.49 | 
16 | CUGGAGCAAUAUUACGCUUA | -2.59 ± 0.45 | -2.32 ± 0.35
17 | UCCAAGCAAUAUUACGUCUG | -4 ± 0.23 | -3.01 ± 0.2
18 | UUACAGCAAUAUUACGAACU | -2.26 ± 0.15 | -0.279 ± 0.13
19 | ACAAAGCAAUAUUACGGUGA | -1.28 ± 0.069 | -0.535 ± 0.07
20 | ACGAAGCAAUAUUACGUGCC | -1.6 ± 0.079 | -0.89 ± 0.1

Row | Sequence | self-splicing fitness (ln) (30 °C) | self-splicing fitness (ln) (37 °C)
21 | AUGCAGCAAUAUUACGCACA | -0.62 ± 0.11 | 0.467 ± 0.13
22 | AGUUAGCAAUAUUACGAUUC | -2.04 ± 0.24 | -0.169 ± 0.26
23 | CUCUAGCAAUAUUACGUGGG | -4.79 ± 0.29 | -2.73 ± 0.18
24 | CUGAAGCAAUAUUACGGUCA | -1.38 ± 0.096 | -0.796 ± 0.13
25 | GCGGAGCAAUAUUACGAACG | -3.06 ± 0.29 | -2.41 ± 0.23
26 | CAACAGCAAUAUUACGCCCU | -1.96 ± 0.086 | -1.24 ± 0.1
27 | GACUAGCAAUAUUACGCUUG | -1.96 ± 0.1 | -1.28 ± 0.13
28 | AAGUAGCAAUAUUACGAGAC | -2.6 ± 0.33 | 
29 | CGUGAGCAAUAUUACGUUUA | -3.08 ± 0.39 | 
30 | GAUCAGCAAUAUUACGUCUG | -2.63 ± 0.11 | -1.84 ± 0.1
31 | GCUAAGCAAUAUUACGUCUG | -1.84 ± 0.085 | -0.987 ± 0.096
32 | GCCAAGCAAUAUUACGGUCG | -3.19 ± 0.13 | -2.27 ± 0.17
33 | UUCUAGCAAUAUUACGCGAU | -1.99 ± 0.22 | 
34 | UAAGAGCAAUAUUACGUCGC |  | -3.39 ± 0.37
35 | UCGCAGCAAUAUUACGUCAC | -3.57 ± 0.15 | -2.85 ± 0.16
36 | UCAAAGCAAUAUUACGAGAA | -3.28 ± 0.34 | -1.48 ± 0.25
37 | AGCAAGCAAUAUUACGCCAA | -2.89 ± 0.2 | -1.97 ± 0.14
38 | CUACAGCAAUAUUACGAAGA | -3.21 ± 0.45 | -2.56 ± 0.41
39 | ACUGAGCAAUAUUACGAUGG | -2.16 ± 0.096 | -1.13 ± 0.1
40 | CUUGAGCAAUAUUACGGAAU | -2.85 ± 0.41 | -2.3 ± 0.48
